Measured values from the MegaScale stability set (Tsuboyama et al. 2023).

B1: r11_951_TrROS_Hall (parent)
chain: KKKYVIKVYFEDTGKEVEIEAESKEEALEAAKRLAEELGLKIKKVEIYP

Variants of: B1
Assay: folding stability dG (cDNA display proteolysis); higher = more stable
Settings: PBS, room temperature
For KKKYVIKVYFFDTGKEVEIEAESKEEALEAAKRLAEELGLKIKKVEIYP, the “folding stability dG” value was 20.7 kJ/mol.
For KKKYVIKVYFLDTGKEVEIEAESKEEALEAAKRLAEELGLKIKKVEIYP, the “folding stability dG” value was 20.6 kJ/mol.
With KKKYVIKVYFRDTGKEVEIEAESKEEALEAAKRLAEELGLKIKKVEIYP the “folding stability dG” value was 20.1 kJ/mol.
With KKKYVIKVYFNDTGKEVEIEAESKEEALEAAKRLAEELGLKIKKVEIYP the “folding stability dG” value was 19.5 kJ/mol.
In the case of KKKYVIKVYFSDTGKEVEIEAESKEEALEAAKRLAEELGLKIKKVEIYP, the “folding stability dG” value is reported as 19.4 kJ/mol.
In the case of KKKYVIKVYFKDTGKEVEIEAESKEEALEAAKRLAEELGLKIKKVEIYP, the “folding stability dG” value is reported as 19.4 kJ/mol.
In the case of KKKYVIKVYFTDTGKEVEIEAESKEEALEAAKRLAEELGLKIKKVEIYP, the “folding stability dG” value is reported as 18.7 kJ/mol.
In the case of KKKYVIKVYFGDTGKEVEIEAESKEEALEAAKRLAEELGLKIKKVEIYP, the “folding stability dG” value is reported as 18.8 kJ/mol.
For KKKYVIKVYFVDTGKEVEIEAESKEEALEAAKRLAEELGLKIKKVEIYP, the “folding stability dG” value was 20.2 kJ/mol.
With KKKYVIKVYFMDTGKEVEIEAESKEEALEAAKRLAEELGLKIKKVEIYP the “folding stability dG” value was 20.1 kJ/mol.
With KKKYVIKVYFIDTGKEVEIEAESKEEALEAAKRLAEELGLKIKKVEIYP the “folding stability dG” value was 20.3 kJ/mol.
With KKKYVIKVYFPDTGKEVEIEAESKEEALEAAKRLAEELGLKIKKVEIYP the “folding stability dG” value was 15.2 kJ/mol.
In the case of KKKYVIKVYFYDTGKEVEIEAESKEEALEAAKRLAEELGLKIKKVEIYP, the “folding stability dG” value is reported as 20.2 kJ/mol.
With KKKYVIKVYFHDTGKEVEIEAESKEEALEAAKRLAEELGLKIKKVEIYP the “folding stability dG” value was 20.2 kJ/mol.
In the case of KKKYVIKVYFQDTGKEVEIEAESKEEALEAAKRLAEELGLKIKKVEIYP, the “folding stability dG” value is reported as 20.1 kJ/mol.
With KKKYVIKVYFEDSGKEVEIEAESKEEALEAAKRLAEELGLKIKKVEIYP the “folding stability dG” value was 19.1 kJ/mol.
For KKKYVIKVYFEDFGKEVEIEAESKEEALEAAKRLAEELGLKIKKVEIYP, the “folding stability dG” value was 18.2 kJ/mol.
For KKKYVIKVYFEDQGKEVEIEAESKEEALEAAKRLAEELGLKIKKVEIYP, the “folding stability dG” value was 18.1 kJ/mol.
For KKKYVIKVYFEDHGKEVEIEAESKEEALEAAKRLAEELGLKIKKVEIYP, the “folding stability dG” value was 18.1 kJ/mol.
With KKKYVIKVYFEDRGKEVEIEAESKEEALEAAKRLAEELGLKIKKVEIYP the “folding stability dG” value was 19.5 kJ/mol.
With KKKYVIKVYFEDGGKEVEIEAESKEEALEAAKRLAEELGLKIKKVEIYP the “folding stability dG” value was 18.9 kJ/mol.
For KKKYVIKVYFEDLGKEVEIEAESKEEALEAAKRLAEELGLKIKKVEIYP, the “folding stability dG” value was 17.9 kJ/mol.
For KKKYVIKVYFEDVGKEVEIEAESKEEALEAAKRLAEELGLKIKKVEIYP, the “folding stability dG” value was 18.4 kJ/mol.
In the case of KKKYVIKVYFEDIGKEVEIEAESKEEALEAAKRLAEELGLKIKKVEIYP, the “folding stability dG” value is reported as 18.4 kJ/mol.
With KKKYVIKVYFEDWGKEVEIEAESKEEALEAAKRLAEELGLKIKKVEIYP the “folding stability dG” value was 17.9 kJ/mol.
In the case of KKKYVIKVYFEDCGKEVEIEAESKEEALEAAKRLAEELGLKIKKVEIYP, the “folding stability dG” value is reported as 15 kJ/mol.
With KKKYVIKVYFEDNGKEVEIEAESKEEALEAAKRLAEELGLKIKKVEIYP the “folding stability dG” value was 19.2 kJ/mol.
For KKKYVIKVYFEDKGKEVEIEAESKEEALEAAKRLAEELGLKIKKVEIYP, the “folding stability dG” value was 18.7 kJ/mol.
In the case of KKKYVIKVYFEDDGKEVEIEAESKEEALEAAKRLAEELGLKIKKVEIYP, the “folding stability dG” value is reported as 17.2 kJ/mol.
For KKKYVIKVYFEDEGKEVEIEAESKEEALEAAKRLAEELGLKIKKVEIYP, the “folding stability dG” value was 18.4 kJ/mol.
For KKKYVIKVYFEDMGKEVEIEAESKEEALEAAKRLAEELGLKIKKVEIYP, the “folding stability dG” value was 18.2 kJ/mol.
In the case of KKKYVIKVYFEDYGKEVEIEAESKEEALEAAKRLAEELGLKIKKVEIYP, the “folding stability dG” value is reported as 18.7 kJ/mol.
In the case of KKKYVIKVYFEDAGKEVEIEAESKEEALEAAKRLAEELGLKIKKVEIYP, the “folding stability dG” value is reported as 18.5 kJ/mol.
In the case of KKKYVIKVYFEDPGKEVEIEAESKEEALEAAKRLAEELGLKIKKVEIYP, the “folding stability dG” value is reported as 18.7 kJ/mol.
With KKKYVIKVYFECTGKEVEIEAESKEEALEAAKRLAEELGLKIKKVEIYP the “folding stability dG” value was 18.3 kJ/mol.
For KKKYVIKVYFEETGKEVEIEAESKEEALEAAKRLAEELGLKIKKVEIYP, the “folding stability dG” value was 18 kJ/mol.
For KKKYVIKVYFERTGKEVEIEAESKEEALEAAKRLAEELGLKIKKVEIYP, the “folding stability dG” value was 20 kJ/mol.
In the case of KKKYVIKVYFEFTGKEVEIEAESKEEALEAAKRLAEELGLKIKKVEIYP, the “folding stability dG” value is reported as 19.4 kJ/mol.
For KKKYVIKVYFEWTGKEVEIEAESKEEALEAAKRLAEELGLKIKKVEIYP, the “folding stability dG” value was 19.9 kJ/mol.
In the case of KKKYVIKVYFEPTGKEVEIEAESKEEALEAAKRLAEELGLKIKKVEIYP, the “folding stability dG” value is reported as 18.2 kJ/mol.
With KKKYVIKVYFENTGKEVEIEAESKEEALEAAKRLAEELGLKIKKVEIYP the “folding stability dG” value was 18.5 kJ/mol.
With KKKYVIKVYFEATGKEVEIEAESKEEALEAAKRLAEELGLKIKKVEIYP the “folding stability dG” value was 18.4 kJ/mol.
In the case of KKKYVIKVYFEGTGKEVEIEAESKEEALEAAKRLAEELGLKIKKVEIYP, the “folding stability dG” value is reported as 19 kJ/mol.
For KKKYVIKVYFEKTGKEVEIEAESKEEALEAAKRLAEELGLKIKKVEIYP, the “folding stability dG” value was 19.3 kJ/mol.
For KKKYVIKVYFEMTGKEVEIEAESKEEALEAAKRLAEELGLKIKKVEIYP, the “folding stability dG” value was 19 kJ/mol.
With KKKYVIKVYFETTGKEVEIEAESKEEALEAAKRLAEELGLKIKKVEIYP the “folding stability dG” value was 18.8 kJ/mol.
With KKKYVIKVYFEVTGKEVEIEAESKEEALEAAKRLAEELGLKIKKVEIYP the “folding stability dG” value was 18.2 kJ/mol.
In the case of KKKYVIKVYFEYTGKEVEIEAESKEEALEAAKRLAEELGLKIKKVEIYP, the “folding stability dG” value is reported as 19.5 kJ/mol.
With KKKYVIKVYFEITGKEVEIEAESKEEALEAAKRLAEELGLKIKKVEIYP the “folding stability dG” value was 19.5 kJ/mol.
In the case of KKKYVIKVYFELTGKEVEIEAESKEEALEAAKRLAEELGLKIKKVEIYP, the “folding stability dG” value is reported as 19.2 kJ/mol.
For KKKYVIKVYFESTGKEVEIEAESKEEALEAAKRLAEELGLKIKKVEIYP, the “folding stability dG” value was 18.3 kJ/mol.
With KKKYVIKVYFEQTGKEVEIEAESKEEALEAAKRLAEELGLKIKKVEIYP the “folding stability dG” value was 18.3 kJ/mol.
For KKKYVIKVYFEHTGKEVEIEAESKEEALEAAKRLAEELGLKIKKVEIYP, the “folding stability dG” value was 18.8 kJ/mol.
